Where no end group is shown, it is not given here.
How the values were obtained:
[1] = target: ERα-pT594-strep (ERαLBD-F-strep phosphorylated in vitro by PKA) (human (from the printed UniProt entry), UniProt P03372 302-595, S305A | F591R | P592R, phosphothreonine at T594); test: FP; 100 uM E2
[2] = target: T1, ERα-Y537S/14-3-3ζ protein complex (human (from the printed UniProt entry) …, UniProt P03372 302-595; P63104 1-245, Y537S | F591R | P592R, phosphothreonine at T594); test: FP; 100 uM E2
[3] = target: T1, ERα-Y537S/14-3-3ζ protein complex; test: FP; DMSO
[4] = target: T2, ERαLBD-F-strep (PKA-responsive, non-phosphorylated) (human (from the printed UniProt entry), UniProt P03372 302-595, S305A | F591R | P592R); test: fluorescence polarisation; as a10 but in the presence of 100 μM E2; apparent KD; details: both partners purified
T2 construct: also called ERα-strep; ERα(PKA)-strep; source: E. coli NiCo21 (DE3), purified (Ni-NTA, SUMO cleavage, Strep-Tactin, SEC); not shown: His tag, N-terminal, cleaved; SUMO, N-terminal, cleaved; strep-tag, C-terminal, kept
T2 sequence (looked up): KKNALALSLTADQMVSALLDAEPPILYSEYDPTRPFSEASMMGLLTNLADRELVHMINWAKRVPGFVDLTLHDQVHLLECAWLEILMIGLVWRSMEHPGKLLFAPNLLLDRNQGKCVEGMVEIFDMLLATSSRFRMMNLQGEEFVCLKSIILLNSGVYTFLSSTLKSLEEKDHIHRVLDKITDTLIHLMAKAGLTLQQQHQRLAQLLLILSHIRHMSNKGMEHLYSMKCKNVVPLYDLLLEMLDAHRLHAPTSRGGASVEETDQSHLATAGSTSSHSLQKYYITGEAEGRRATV

[5] = target: T3, ERα-pT594-strep (ERαLBD-F-strep phosphorylated in vitro by PKA) (human (from the printed UniProt entry), UniProt P03372 302-595, S305A | F591R | P592R, phosphothreonine at T594); test: as above; details: both partners purified
T3 construct: also called ERα(PKA)-pT594-strep; phosphorylated ERα; source: E. coli NiCo21 (DE3), phosphorylated in vitro with His-PKA-strep and ATP, purified (Ni-NTA, Strep-Tactin, SEC); not shown: His tag, N-terminal, cleaved; SUMO, N-terminal, cleaved; strep-tag, C-terminal, kept
T3 sequence (looked up): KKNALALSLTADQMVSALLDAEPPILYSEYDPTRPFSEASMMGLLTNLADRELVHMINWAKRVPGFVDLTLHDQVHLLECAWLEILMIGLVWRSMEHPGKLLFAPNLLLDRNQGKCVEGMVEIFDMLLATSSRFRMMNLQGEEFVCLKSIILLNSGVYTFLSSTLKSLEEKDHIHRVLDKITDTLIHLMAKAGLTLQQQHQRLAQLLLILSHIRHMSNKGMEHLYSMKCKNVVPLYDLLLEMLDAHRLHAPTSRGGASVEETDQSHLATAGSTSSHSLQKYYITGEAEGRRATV

[6] = target: T4, ERα-Y537S LBD-F-strep (PKA-responsive), without 14-3-3ζ (human (from the printed UniProt entry), UniProt P03372 302-595, S305A | Y537S | F591R | P592R); test: as above; details: both partners purified
T4 construct: the methods list ERα(PKA)-strep and ERα(PKA)-pT594-strep 'for WT ERα and Y537S mutant'; also called apo ERα-Y537S
T4 sequence (looked up): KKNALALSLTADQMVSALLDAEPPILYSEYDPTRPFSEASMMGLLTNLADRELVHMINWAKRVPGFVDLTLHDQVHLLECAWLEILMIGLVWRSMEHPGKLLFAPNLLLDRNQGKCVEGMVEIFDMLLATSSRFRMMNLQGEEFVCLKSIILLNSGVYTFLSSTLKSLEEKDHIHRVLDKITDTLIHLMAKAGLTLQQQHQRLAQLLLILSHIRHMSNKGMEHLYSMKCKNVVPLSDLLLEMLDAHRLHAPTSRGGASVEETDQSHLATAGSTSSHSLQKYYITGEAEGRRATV

[7] = target: T2, ERαLBD-F-strep (PKA-responsive, …); test: fluorescence polarisation; fluorescence anisotropy; ERα or complex titrated (2-fold series from 40 μM ERα) to 20 nM fluorescein-labeled SRC1 peptide; DMSO control; 20 mM HEPES pH 7.5, 150 mM NaCl, 10 mM MgCl2, 0.1% Tween20, 0.1% BSA; room temperature; apparent KD (4PL fit); details: both partners purified
[8] = target: T3, ERα-pT594-strep (ERαLBD-F-strep …); test: as above; details: both partners purified
[9] = target: T4, ERα-Y537S LBD-F-strep (PKA-responsive), …; test: as above; details: both partners purified

T1 sequence (P63104 whole entry, stated change not applied, one chain of several): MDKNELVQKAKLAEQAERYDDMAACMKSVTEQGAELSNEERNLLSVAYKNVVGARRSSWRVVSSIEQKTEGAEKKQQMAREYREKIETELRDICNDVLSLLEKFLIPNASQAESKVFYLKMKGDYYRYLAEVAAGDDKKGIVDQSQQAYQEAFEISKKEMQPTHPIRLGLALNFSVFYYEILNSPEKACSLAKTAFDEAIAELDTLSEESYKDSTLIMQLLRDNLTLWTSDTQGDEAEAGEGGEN

Kd [1]: 900 nM | Kd [2]: 400 nM | Kd [3]: 700 nM | Kd [4]: 1000 nM | Kd [5]: 1000 nM | Kd [6]: 800 nM | Kd [7]: ~20000 nM | Kd [8]: ~20000 nM | Kd [9]: 1700 nM
Binder: LTERHKILHRLLQEGSPSD (also: fluorescein (FITC) label, position not given here) [fluorescein-labeled SRC-1 cofactor peptide (LXXLL motif of SRC-1/NCoA-1)]

Source: paper PMC10302166, “Molecular basis and dual ligand regulation of tetrameric estrogen receptor α/14-3-3ζ protein complex” (The Journal of Biological Chemistry, 2023)
